Patent US20060141569A1, “Compositions and methods for the assay of G-protein coupled receptors and their ligands” (priority 2004, published 2006)

How the values were obtained:
[1] = target: T1, CB1 receptor (Homo sapiens, UniProt P21554); assay: CB1 receptor FLIPR dose response in CB1-transfected CHEM-1 cells; format: cell-based; settings: pHS vector (FIG. 10D)
T1 construct: ER export signal […]; expressed in transfected cells; host or cells: CHEM-1 (RBL-2H3) cells, pHS vector
Experimental: FIG. 10D is a graph depicting the agonist-induced CB1 receptor FLIPR® dose response for CB1-transfected CHEM-1 cells using the pHS vector.
Cells (50,000/well) were seeded in a 96 well FLIPR® plate (clear bottom, black wall TC plate) the day before the experiment, and then loaded with fluorescent calcium dye Fluo-4 or Indo-1 (Molecular Probes) and incubated for 30 minutes at 37° C. in the dark with Pluronic F-127 and Probenecid in HBSS buffer (with Ca^2+ and Mg^2+). The cells were then washed twice with HBSS and read for calcium mobilization after the ligand addition on FLEX Station or FLIPR®. The loading efficiency and integrity of the Ca^2+ flux assay were assessed by comparing the signaling response to ionomycin treatment before and after each run.

[2] = target: T2, CXCR2 (Homo sapiens, UniProt P25025); assay: CXCR2 membrane radioligand (125I-Groα) saturation binding; settings: membranes of CHO cells transfected with CXCR2, pcDNA3 vector; 125I-Groα 0-2 nM (FIG. 7A)
T2 construct: expressed in transfected cells; host or cells: CHO cells, pcDNA3 vector, crude membranes of stably transfected cells
T2 sequence (P25025 1-360): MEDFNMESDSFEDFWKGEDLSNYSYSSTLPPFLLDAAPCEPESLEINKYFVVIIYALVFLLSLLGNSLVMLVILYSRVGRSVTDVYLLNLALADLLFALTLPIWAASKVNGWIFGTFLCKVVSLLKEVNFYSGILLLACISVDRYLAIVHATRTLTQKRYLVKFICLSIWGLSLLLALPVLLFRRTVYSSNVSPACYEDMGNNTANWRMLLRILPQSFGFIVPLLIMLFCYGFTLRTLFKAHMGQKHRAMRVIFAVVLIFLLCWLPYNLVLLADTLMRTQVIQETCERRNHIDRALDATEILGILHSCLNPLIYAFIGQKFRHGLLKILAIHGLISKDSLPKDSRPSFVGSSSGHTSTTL
Experimental: (§1) FIG. 7A is a graph depicting CXCR2 membrane radioligand saturation binding for membranes of CHO cells transfected with CXCR2 encoded by the mammalian expression vector pcDNA3. Specifically, 5 μg of GPCR membrane preps were incubated with increasing concentrations (0-2 nM) of ^125I-labeled ligand Groα (PerkinElmer, Wellesley, Mass.) in the absence or presence of an excess amount of cold ligand Groα.
as §1, with “7B” for “7A”, “CHEM-1” for “CHO”, “the” for “the mammalian”, “pHS.” for “pcDNA3.”, “preparation was” for “preps were”
1-5 μg/well of crude membrane protein was thawed and combined with 50,000 to 100,000 cpm of radioligand (2200 Ci/mmol) and cold competitors in assay buffer (50 mM Hepes, 5 mM MgCl2, 1 mM CaCl2, 0.2% BSA) for 2 hours at 25° C. Reactions were performed in 96-well GF/C glass fiber filter plates (PerkinElmer, Cat. No. 6005174, Wellesley, Mass.). […] The filter plate was then dried and counted on a Microbeta liquid scintillation counter (PerkinElmer, Wellesley, Mass.). […]

[3] = target: T2, CXCR2; assay: CXCR2 membrane radioligand (125I-Groα) competition binding; settings: two site binding curve, FIG. 8A (pcDNA3/CHO membranes); 0.5 nM 125I-Groα; matches high affinity sites of FIG. 8B
Experimental: After 2 hours of incubation at room temperature, membranes were harvested to a 96-well GF/C filter plate, dried and counted using a Microbeta counter.
1-5 μg/well of crude membrane protein was thawed and combined with 50,000 to 100,000 cpm of radioligand (2200 Ci/mmol) and cold competitors in assay buffer (50 mM Hepes, 5 mM MgCl2, 1 mM CaCl2, 0.2% BSA) for 2 hours at 25° C. Reactions were performed in 96-well GF/C glass fiber filter plates (PerkinElmer, Cat. No. 6005174, Wellesley, Mass.). Binding was terminated by adding 100 μl/well of wash buffer (50 mM Hepes, pH 7.4, 500 mM NaCl, 0.1% BSA) and aspiration through the plate on a cell harvester, followed by three 0.2 ml washes with wash buffer. The filter plate was then dried and counted on a Microbeta liquid scintillation counter (PerkinElmer, Wellesley, Mass.).

T1 sequence (P21554 whole entry): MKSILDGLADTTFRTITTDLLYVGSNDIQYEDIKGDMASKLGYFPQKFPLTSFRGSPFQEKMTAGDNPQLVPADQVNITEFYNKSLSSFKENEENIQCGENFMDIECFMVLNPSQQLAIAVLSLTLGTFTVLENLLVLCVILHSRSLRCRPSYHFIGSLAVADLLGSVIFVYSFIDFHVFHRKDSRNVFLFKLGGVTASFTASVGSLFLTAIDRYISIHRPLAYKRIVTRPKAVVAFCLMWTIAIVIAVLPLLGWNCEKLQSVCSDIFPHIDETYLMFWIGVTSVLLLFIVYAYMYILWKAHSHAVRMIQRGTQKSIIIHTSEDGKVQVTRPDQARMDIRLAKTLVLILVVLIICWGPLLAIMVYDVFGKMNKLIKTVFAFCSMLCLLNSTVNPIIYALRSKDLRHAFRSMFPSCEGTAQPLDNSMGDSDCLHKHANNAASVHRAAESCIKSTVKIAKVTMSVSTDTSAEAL

Row | Compound | agonist type (efficacy) in FLIPR dose response [1] | Kd [2] [nM] | Ki [3] [nM]
1 | CCCCCCC(C)(C)c1ccc([C@@H]2C[C@H](O)CC[C@H]2CCCO)c(O)c1 [CP55940] | partial agonists |  | 
2 | Groα |  | 0.148 | 0.22
